# From paper PMC6980832, “Crystal structures of Triosephosphate Isomerases from Taenia solium and Schistosoma mansoni provide insights for vaccine rationale and drug design against helminth parasites” (PLoS Neglected Tropical Diseases, 2020)
# Legend:
# Assay in all cases: SEC; gel filtration elution profile of wild-type and point mutants of SmTPI; conditions not shown
# [1] = molecular target: SmTPI-C221D (Schistosoma mansoni)
# [2] = molecular target: SmTPI-C221K (Schistosoma mansoni)
# [3] = molecular target: SmTPI-C221S (Schistosoma mansoni)
# [4] = molecular target: SmTPI-C221Y (Schistosoma mansoni)
substance,measurement,setting,value
SmTPI-C221D (enzyme),stoichiometry N,[1],2
SmTPI-C221K (enzyme),stoichiometry N,[2],2
SmTPI-C221S (enzyme),stoichiometry N,[3],2
SmTPI-C221Y (enzyme),stoichiometry N,[4],2
